Results: article PMC3627822

What was measured:
[1] = biological target: soluble integrin α2β1 ectodomain (UniProt P17301); experiment: ELISA
[2] = biological target: sochicetin-A (Echis sochureki); experiment: ELISA
[3] = biological target: sochicetin-B (Echis sochureki); experiment: ELISA
[4] = biological target: sochicetin-C (Echis sochureki); experiment: ELISA
[5] = biological target: sochicetin-A αβ heterodimer (Echis sochureki); experiment: SDS-PAGE, non-reduced against reduced and partly reduced + MALDI-TOF

With sochicetin-B (complex) the IC50 [1] was 32.7 nM.

Work on “recombinant GST-tagged integrin α2 A-domain (domain or fragment)” yielded a Kd [2] of 11.7 nM, a Kd [3] of 17.3 nM and a Kd [4] of 54.5 nM.

sochicetin-A αβ heterodimer (complex) showed a stoichiometry N [5] of 3.

For sochicetin-C (complex), the IC50 [1] was 1480 nM.

Work on sochicetin-A (complex) yielded an IC50 [1] of 59.7 nM.
